From patent US20210395318A1 (Molecular Partners, published 2021)

B1: SMA014 (designed binder)
chain: MRGSHHHHHHGSDLGEKLLVAALYGQDDEVRELLKAGADVNAKDQWGLTPLHKAALQGHLEIVEVLLKAGADVNAKDERGHTPLHWAARFGHLEIVEVLLKAGADVNAQDQKGYTPADLAALWGHEDIAEVLQKAAGSPTPTPTTPTPTPTTPTPTPTGSDLGKKLLQAARAGQLDEVRELLKAGADVNAKDTWGFTPLHIAAESGHLEIVEVLLKAGADVNAKDVQGRTPLHIAAHSGHLEIVEVLLKAGADVNAKDFRGWTPLHLAAWSGHLEIVEILLKAGADVNAQDKSGKTPADLAARAGHQDIAEVLQKAA
B2: SMA099 (designed binder)
chain: MRGSHHHHHHGSDLGKKLLEAARAGQDDEVRELLKAGADVNAKDYFSHTPLHLAARNGHLKIVEVLLKAGADVNAKDFAGKTPLHLAAADGHLEIVEVLLKAGADVNAQDIFGKTPADIAADAGHEDIAEVLQKAAGSPTPTPTTPTPTPTTPTPTPTGSDLGEKLLVAALYGQDDEVRELLKAGADVNAKDQWGLTPLHKAALQGHLEIVEVLLKAGADVNAKDERGHTPLHWAARFGHLEIVEVLLKAGADVNAQDQKGYTPADLAALWGHEDIAEVLQKAAGSPTPTPTTPTPTPTTPTPTPTGSDLGKKLLQAARAGQLDEVRELLKAGADVNAKDTWGFTPLHIAAESGHLEIVEVLLKAGADVNAKDVQGRTPLHIAAHSGHLEIVEVLLKAGADVNAKDFRGWTPLHLAAWSGHLEIVEILLKAGADVNAQDKSGKTPADLAARAGHQDIAEVLQKAAGSPTPTPTTPTPTPTTPTPTPTGSDLGKKLLQAARAGQLDEVRELLKAGADVNAKDTWGFTPLHIAAESGHLEIVEVLLKAGADVNAKDVQGRTPLHIAAHSGHLEIVEVLLKAGADVNAKDFRGWTPLHLAAWSGHLEIVEILLKAGADVNAQDKSGKTPADLAARAGHQDIAEVLQKAAGSPTPTPTTPTPTPTTPTPTPTGSDLGKKLLEAARAGQDDEVRELLKAGADVNAKDYFSHTPLHLAARNGHLKIVEVLLKAGADVNAKDFAGKTPLHLAAADGHLEIVEVLLKAGADVNAQDIFGKTPADIAADAGHEDIAEVLQKAA
B3: AS579 (designed binder)
chain: MRGSHHHHHHGSDLGKKLLEAARAGQDDEVRELLKAGADVNAKDYFSHTPLHLAARNGHLKIVEVLLKAGADVNAKDFAGKTPLHLAAADGHLEIVEVLLKAGADVNAQDIFGKTPADIAADAGHEDIAEVLQKAAGSPTPTPTTPTPTPTTPTPTPTGSDLGKKLLEAARAGQDDEVRELLKAGADVNAKDYFSHTPLHLAARNGHLKIVEVLLKAGADVNAKDFAGKTPLHLAAADGHLEIVEVLLKAGADVNAQDIFGKTPADIAADAGHEDIAEVLQKAAGSPTPTPTTPTPTPTTPTPTPTGSDLGEKLLVAALYGQDDEVRELLKAGADVNAKDQWGLTPLHKAALQGHLEIVEVLLKAGADVNAKDERGHTPLHWAARFGHLEIVEVLLKAGADVNAQDQKGYTPADLAALWGHEDIAEVLQKAAGSPTPTPTTPTPTPTTPTPTPTGSDLGKKLLQAARAGQLDEVRELLKAGADVNAKDTWGFTPLHIAAESGHLEIVEVLLKAGADVNAKDVQGRTPLHIAAHSGHLEIVEVLLKAGADVNAKDFRGWTPLHLAAWSGHLEIVEILLKAGADVNAQDKSGKTPADLAARAGHQDIAEVLQKAAGSPTPTPTTPTPTPTTPTPTPTGSDLGKKLLQAARAGQLDEVRELLKAGADVNAKDTWGFTPLHIAAESGHLEIVEVLLKAGADVNAKDVQGRTPLHIAAHSGHLEIVEVLLKAGADVNAKDFRGWTPLHLAAWSGHLEIVEILLKAGADVNAQDKSGKTPADLAARAGHQDIAEVLQKAA
B4: SMA105 (designed binder)
chain: MRGSHHHHHHGSDLGEKLLVAALYGQDDEVRELLKAGADVNAKDQWGLTPLHKAALQGHLEIVEVLLKAGADVNAKDERGHTPLHWAARFGHLEIVEVLLKAGADVNAQDQKGYTPADLAALWGHEDIAEVLQKAAGSPTPTPTTPTPTPTTPTPTPTGSDLGKKLLQAARAGQLDEVRELLKAGADVNAKDTWGFTPLHIAAESGHLEIVEVLLKAGADVNAKDVQGRTPLHIAAHSGHLEIVEVLLKAGADVNAKDFRGWTPLHLAAWSGHLEIVEILLKAGADVNAQDKSGKTPADLAARAGHQDIAEVLQKAAGSPTPTPTTPTPTPTTPTPTPTGSDLGKKLLQAARAGQLDEVRELLKAGADVNAKDTWGFTPLHIAAESGHLEIVEVLLKAGADVNAKDVQGRTPLHIAAHSGHLEIVEVLLKAGADVNAKDFRGWTPLHLAAWSGHLEIVEILLKAGADVNAQDKSGKTPADLAARAGHQDIAEVLQKAAGSPTPTPTTPTPTPTTPTPTPTGSDLGKKLLQAARAGQLDEVRELLKAGADVNAKDTWGFTPLHIAAESGHLEIVEVLLKAGADVNAKDVQGRTPLHIAAHSGHLEIVEVLLKAGADVNAKDFRGWTPLHLAAWSGHLEIVEILLKAGADVNAQDKSGKTPADLAARAGHQDIAEVLQKAA
B5: SMA091 (designed binder)
chain: MRGSHHHHHHGSDLGKKLLEAARAGQDDEVRELLKAGADVNAKDYFSHTPLHLAARNGHLKIVEVLLKAGADVNAKDFAGKTPLHLAAADGHLEIVEVLLKAGADVNAQDIFGKTPADIAADAGHEDIAEVLQKAAGSPTPTPTTPTPTPTTPTPTPTGSDLGEKLLVAALYGQDDEVRELLKAGADVNAKDQWGLTPLHKAALQGHLEIVEVLLKAGADVNAKDERGHTPLHWAARFGHLEIVEVLLKAGADVNAQDQKGYTPADLAALWGHEDIAEVLQKAAGSPTPTPTTPTPTPTTPTPTPTGSDLGKKLLQAARAGQLDEVRELLKAGADVNAKDTWGFTPLHIAAESGHLEIVEVLLKAGADVNAKDVQGRTPLHIAAHSGHLEIVEVLLKAGADVNAKDFRGWTPLHLAAWSGHLEIVEILLKAGADVNAQDKSGKTPADLAARAGHQDIAEVLQKAAGSPTPTPTTPTPTPTTPTPTPTGSDLGKKLLQAARAGQLDEVRELLKAGADVNAKDTWGFTPLHIAAESGHLEIVEVLLKAGADVNAKDVQGRTPLHIAAHSGHLEIVEVLLKAGADVNAKDFRGWTPLHLAAWSGHLEIVEILLKAGADVNAQDKSGKTPADLAARAGHQDIAEVLQKAA
B6: SMA095 (designed binder)
chain: MRGSHHHHHHGSDLGKKLLEAARAGQDDEVRELLKAGADVNAKDYFSHTPLHLAARNGHLKIVEVLLKAGADVNAKDFAGKTPLHLAAADGHLEIVEVLLKAGADVNAQDIFGKTPADIAADAGHEDIAEVLQKAAGSPTPTPTTPTPTPTTPTPTPTGSDLGEKLLVAALYGQDDEVRELLKAGADVNAKDQWGLTPLHKAALQGHLEIVEVLLKAGADVNAKDERGHTPLHWAARFGHLEIVEVLLKAGADVNAQDQKGYTPADLAALWGHEDIAEVLQKAAGSPTPTPTTPTPTPTTPTPTPTGSDLGKKLLQAARAGQLDEVRELLKAGADVNAKDTWGFTPLHIAAESGHLEIVEVLLKAGADVNAKDVQGRTPLHIAAHSGHLEIVEVLLKAGADVNAKDFRGWTPLHLAAWSGHLEIVEILLKAGADVNAQDKSGKTPADLAARAGHQDIAEVLQKAAGSPTPTPTTPTPTPTTPTPTPTGSDLGKKLLEAARAGQDDEVRELLKAGADVNAKDYFSHTPLHLAARNGHLKIVEVLLKAGADVNAKDFAGKTPLHLAAADGHLEIVEVLLKAGADVNAQDIFGKTPADIAADAGHEDIAEVLQKAA

What was measured:
Test in all cases: cell-based or functional assay
[1] = biological target: T1, human CD40 on primary human B cells or human monocyte-derived dendritic cells (human, UniProt P25942 21-277)
[2] = biological target: T1, human CD40 on primary human B cells or …; remark: listed apart in the source
[3] = biological target: T1, human CD40 on primary human B cells or …; remark: listed apart in the source

T1 sequence (P25942 21-277 H80K/K81H limits assumed): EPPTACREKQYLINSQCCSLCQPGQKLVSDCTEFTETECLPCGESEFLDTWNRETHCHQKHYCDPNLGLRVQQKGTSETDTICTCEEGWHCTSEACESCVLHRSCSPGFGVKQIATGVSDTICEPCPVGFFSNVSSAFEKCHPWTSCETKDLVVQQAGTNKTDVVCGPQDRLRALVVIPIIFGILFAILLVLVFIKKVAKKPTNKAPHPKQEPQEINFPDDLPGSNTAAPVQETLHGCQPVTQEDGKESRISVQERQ

Row | Binder | EC50, % CD86, human B cells with FAP-CHO cells, w HSA [1] [nM] | EC50, % CD86, human B cells with FAP-CHO cells, w/o HSA [1] [nM] | EC50, MFI CD86, human B cells with FAP-CHO cells, w HSA [1] [nM] | EC50, MFI CD86, human B cells with FAP-CHO cells, w/o HSA [1] [nM] | Efficacy [MFI at highest dose], MFI CD86, human B cells with FAP-CHO cells, w HSA [2] [MFI] | Efficacy [MFI at highest dose], MFI CD86, human B cells with FAP-CHO cells, w/o HSA [2] [MFI] | Efficacy at highest dose, % CD86, human B cells with FAP-CHO cells, w HSA [2] [%] | Efficacy at highest dose, % CD86, human B cells with FAP-CHO cells, w/o HSA [2] [%] | Efficacy [MFI at highest dose], MFI CD86, human B cells with WT-CHO cells (no FAP), w HSA [3] [MFI] | Efficacy [MFI at highest dose], MFI CD86, human B cells with WT-CHO cells (no FAP), w/o HSA [3] [MFI] | Efficacy at highest dose, % CD86, human B cells with WT-CHO cells (no FAP), w HSA [3] [%] | Efficacy at highest dose, % CD86, human B cells with WT-CHO cells (no FAP), w/o HSA [3] [%]
1 | B1 | 6.15 | 4.21 | 7.7 | 8.46 | 2190 | 2440 | 47 | 48.4 | 310 | 294 | 13.3 | 13.2
2 | B2 | 7.5 | 4.68 | 19.4 | 18.2 | 1720 | 4950 | 71.7 | 84.4 | 274 | 289 | 42.5 | 47.4
3 | B3 | 10.2 | 2.27 | 23.1 | 10 | 1780 | 4860 | 71.9 | 83 | 242 | 252 | 40.1 | 42
4 | B4 | – | 0.11 | – | 0.33 | – | 5560 | – | 87.2 | – | 672 | – | 69.2
5 | B5 | 2.98 | 0.76 | 8.05 | 3.93 | 2980 | 6230 | 75.6 | 78.2 | 296 | 290 | 43.1 | 47.8
6 | B6 | – | 89.8 | – | 288 | 232 | 773 | – | 28.7 | 306 | 299 | 13.7 | 12.5
